{
  "source": "paper PMC6589784",
  "key": {"[1]": {"molecular_target": "Mg-ATP-actin (skeletal muscle actin, assembled into filaments) (rabbit or chicken) (UniProt P68135)", "assay": "single-molecule two-color TIRFM"}, "[2]": {"molecular_target": "Mg-ATP-actin (skeletal muscle actin, assembled into filaments) (rabbit or chicken) (UniProt P68135)", "assay": "single-molecule two-color TIRFM", "remark": "listed apart in the source"}, "[3]": {"molecular_target": "Mg-ATP-actin (skeletal muscle actin, assembled into filaments) (rabbit or chicken) (UniProt P68135)", "assay": "single-molecule two-color TIRFM", "remark": "listed apart in the source"}, "[4]": {"molecular_target": "Mg-ATP-actin (skeletal muscle actin, assembled into filaments) (rabbit or chicken) (UniProt P68135)", "assay": "bulk seeded pyrene actin assembly"}, "[5]": {"molecular_target": "Mg-ATP-actin (skeletal muscle actin, assembled into filaments) (rabbit or chicken) (UniProt P68135)", "assay": "single-color TIRFM of actin elongation rates"}},
  "note": "pKd: −log10 of the molar value. Read-outs that look alike come from different tables or passages of the source.",
  "data": [
    {"substance": "MBP-SNAP(549)-EnaΔLΔCC-Foldon", "values": [
      {"measurement": "processive run length tau, 2-filament trailing barbed ends", "setting": "[1]", "value": 8.9, "unit": "s"},
      {"measurement": "processive run length tau, 3- or more filament trailing barbed ends", "setting": "[1]", "value": 11.2, "unit": "s"}
    ]},
    {"substance": "MBP-SNAP(549)-EnaΔLΔCC-GCN4", "values": [
      {"measurement": "processive run length tau, 2-filament trailing barbed ends", "setting": "[1]", "value": 1.5, "unit": "s"}
    ]},
    {"substance": "SNAP(549)-EnaΔL (from UniProt Q8T4F7 1-980) (natural protein)", "values": [
      {"measurement": "average processive run length tau, leading barbed ends", "setting": "[2]", "value": 10.1, "unit": "s"},
      {"measurement": "average processive run length tau, trailing barbed ends", "setting": "[2]", "value": 28.1, "unit": "s"},
      {"measurement": "average processive run length tau, leading barbed ends", "setting": "[1]", "value": 8.4, "unit": "s"},
      {"measurement": "average processive run length tau, trailing barbed ends", "setting": "[1]", "value": 23.7, "unit": "s"},
      {"measurement": "average residence time tau, single filament barbed ends", "setting": "[1]", "value": 10, "unit": "s"},
      {"measurement": "average residence time tau, trailing barbed ends of a two-filament bundle", "setting": "[1]", "value": 21.7, "unit": "s"},
      {"measurement": "average residence time tau, single filament barbed ends", "setting": "[3]", "value": 8.9, "unit": "s"},
      {"measurement": "average residence time tau, trailing barbed ends of a two-filament bundle", "setting": "[3]", "value": 16.8, "unit": "s"}
    ]},
    {"substance": "SNAP(549)-UNC-34 (natural protein)", "values": [
      {"measurement": "average residence time tau, single filament barbed ends", "setting": "[1]", "value": 1.2, "unit": "s"},
      {"measurement": "processive run length tau, trailing barbed ends of 2-filament fascin bundles", "setting": "[1]", "value": 2.9, "unit": "s"}
    ]},
    {"substance": "SNAP(549)-VASP (from UniProt P50552 1-380) (natural protein)", "values": [
      {"measurement": "average residence time tau, single filament barbed ends", "setting": "[1]", "value": 1, "unit": "s"},
      {"measurement": "processive run length tau, trailing barbed ends of 2-filament fascin bundles", "setting": "[1]", "value": 2.6, "unit": "s"}
    ]},
    {"substance": "unlabeled EnaΔL (from UniProt Q8T4F7 1-980) (natural protein)", "values": [
      {"measurement": "pKd", "setting": "[4]", "value": 9.15},
      {"measurement": "pKd", "setting": "[5]", "value": 8.49}
    ]},
    {"substance": "unlabeled UNC-34 (natural protein)", "values": [
      {"measurement": "pKd", "setting": "[4]", "value": 7.99},
      {"measurement": "pKd", "setting": "[5]", "value": 8.17}
    ]},
    {"substance": "unlabeled VASP (from UniProt P50552 1-380) (natural protein)", "values": [
      {"measurement": "pKd", "setting": "[4]", "value": 7.97},
      {"measurement": "pKd", "setting": "[5]", "value": 7.91}
    ]}
  ]
}
